{
  "source": "paper PMC4512291",
  "about": "(Angewandte Chemie (International Ed. in English), 2015)",
  "binders": {"B1": {"name": "PDZ-LxxLL chimera fused to a Gaussia princeps luciferase fragment (GPCA) (designed binder)", "chain": "GKPFFTRNPSELKGKFIHTKLRKSSRGFGFTVVGGDEPDEFLQIKSLVLDGPAALDGKMETGDVIVSVNDTCVLGHTHAQVVKIFQSIPIGASVDLELCRGYPLPFDPDDPNTSLVTSVAILDKEPAAAELTLQELLGEER"}},
  "molecular_target": "HPV16 E6 (GPCA fusion) (HPV16, UniProt P03126 1-158)",
  "experiment": "split reporter",
  "data": [
    {"binder": "B1", "values": [
      {"measurement": "fold increase of the GPCA binding signal over that with LxxLL", "result": 75, "unit": "fold"},
      {"measurement": "fold increase of the GPCA binding signal over that with PDZ", "result": 25, "unit": "fold"}
    ]}
  ]
}
